This is an account of results in the DeepSol protein solubility set.

This data set is described as follows: soluble on expression in E. coli; label from the status in PepcDB or PDB records.
Take “MVPAAQQTATAPDAALTFPEGFLWGSATASYQIEGAAAEDGRTPSIWDTYARTPGRVRNGDTGDVATDHYHRWREDVALMAELGLGAYRFSLAWPRIQPTGRGPALQKGLDFYRRLADELLAKGIQPVATLYHWDLPQELENAGGWPERATAERFAEYAAIAADALGDRVKTWTTLNEPWCSAFLGYGSGVHAPGRTDPVAALRAAHHLNLGHGLAVQALRDRLPADAQCSVTLNIHHVRPLTDSDADADAVRRIDALANRVFTGPMLQGAYPEDLVKDTAGLTDWSFVRDGDLRLAHQKLDFLGVNYYSPTLVSEADGSGTHNSDGHGRSAHSPWPGADRVAFHQPPGETTAMGWAVDPSGLYELLRRLSSDFPALPLVITENGAAFHDYADPEGNVNDPERIAYVRDHLAAVHRAIKDGSDVRGYFLWSLLDNFEWAHGYSKRFGAVYVDYPTGTRIPKASARWYAEVARTGVLPTA”: the “soluble on expression in E. coli” value is “soluble”.
For the sequence “MNKKIGITLGDPAGIGPELILKISKHFKEKFTYVIYGEEKTLLEASKLTGIKLNYKKIEKVEEAKERGVYLIDLNVLKVPVVEPSVSSGKAAVAYLARAVADAIRGNIHGILTMPINKFWAKKAGFQYEGQTEFLAKASGTKDYAMMMYSEKLKVVLLTTHIPLKDVPNYVKKEEILKKVRLIRKEFLEKFKFEPLIKVLGLNPHAGEMGELGREEIEEIIPAVEEAKKEGIKVVGPLVPDVAFINPSEEDVFLCMYHDQGLIPFKMLAFDEGVNFTLGLPFIRTSPDHGTAYDIAWKNKARESSSLHALRLIEDLLDKI”, the “soluble on expression in E. coli” value was “soluble”.
Take “NLNMAVSVTPIRDTKWLTLEVCREFQRGTCSRPDTECKFAHPSKSCQVENGRVIACFDSLKGRCSRENCKYLHPPPHLKTQLEINGRNNLIQQKNMAMLAQQMQLANAMMPGAPLQPVPMFSVAPSLATNASAAAFNPYLGPVSPSLVPAEILPTAPMLVTGNPGVPVPAAAAAAAQKLMRTDRLEVCREYQRGNCNRGENDCRFAHPADSTMIDTNDNTVTVCMDYIKGRCSREKCKYFHPPAHLQAKIKAAQYQVNQAAAAQAAATAAAMGIPQAVLPPLPKRPALEKTNGATAVFNTGIFQYQQALANMQLQQHTAFLPPVPMVHGATPATVSAATTSATSVPFAATATANQIPIISAEHLTSHKYVTQM”: the “soluble on expression in E. coli” value is “soluble”.
For the sequence “MGSDKIHHHHHHMHQDTVRGKAFAMPLISPAYPAGPYRFRNREYLIITYRTDPQKLRDLVPEPLQVCEPMVKFEFIRMPDSTGFGDYTEGGQVIPVSFYGRRGSYTHCMFLDDHPPIAGGRELWGFPKKLASPTLRTETDTLVGTLDYGPVRVATGTMGYKHRAADLASVRASLAEPNFLLKIIPHVDGTPRICELVEYHLEDVHLRGAWTGPAALNLWSHALAPVAELPVLEVVSAVHLVADLTLALGKVVHDYLAKA”, the “soluble on expression in E. coli” value is “not soluble”.
“MEKFLVIAGPNAIESEELLLKVGEEIKRLSEKFKEVEFVFKSSFDKANRSSIHSFRGHGLEYGVKALRKVKEEFGLKITTDIHESWQAEPVAEVADIIQIPAFLCRQTDLLLAAAKTGRAVNVKKGQFLAPWDTKNVVEKLKFGGAKEIYLTERGTTFGYNNLVVDFRSLPIMKQWAKVIYDATHSVQLPGGLGDKSGGMREFIFPLIRAAVAVGCDGVFMETHPEPEKALSDASTQLPLSQLEGIIEAILEIREVASKYYETIPVK”: the “soluble on expression in E. coli” value is reported as “soluble”.
For the sequence “MSLDKNLQTVIHDEHCGTLDFSLGDSRYSGELESGESYTVNFSVNPPEGSSIKVARAYIYWTWSKQGLDGIYPEFKSSLVHSGSSVLLLEEKRYTDTKGFVSRYDFFSGTDVYDLSEDISEAGNYSISLVNAGGDEKTFCVQGAGLLLVYENPDLPQTEYWINEGCDVLYAEYGIDPDMATTTTFFEGDICPENIENARLITVSPSGGYSSGTEARNRLFFNEKTGSIPVIGDIIKLLFAGGKSWKNVYQTNETVQIALDERSVGNYLDSNGNFASIQDNGDYLMATNAILLLEFKEPENPGKRYGEGHHHHHH”, the “soluble on expression in E. coli” value is listed as “not soluble”.
Consider “GTTDAQGFATVEIKQSQGVGLSTPLNIVPVNSYIPNTVNYNVIFTTLTSPDAVGAQMWGHMDETITVDALTFARPRLAAEVFSPDGTLTENNEVWSRVSQANASSTSKGGCGANMLPRRSQLSALYDANNGNGVQTVHGWPTQRQPYWSSSPADQVPHYYTIALNDGARTVGGSTAVYVSCLTTANNP”, for which the “soluble on expression in E. coli” value was “not soluble”.
To “MLQEIPTTTPSLREARPCVLETERLTLRKPVLADVQAIASLANDRRVVEMTRRMPFPYTRDDAARFVTALPKSSDSVFLIEAEDLEPIGLVGVDWSDRDAPELGYWLGVQHWGNGYATEAARAVIDFTFEVHGAKQMISGARVINPASRNVLEKCGFQWTGVELHRFESIGSSTPVDCFRLTRGVWSSLKKWGTTKRRC” belongs “not soluble”; to “MSGKVVRPSAALLEVFKSWQGGAIRVQRNEKLKTRLDVILDRPEKNNCLSGEMMKQFGEHTELFSDDQNAIIVVSGVGKSFCSGADLGLIKDISDQKLGVQMFEYMSSILSLLHSSPAISIAKIHGHALGGATEICSSTDIRIAHSGSKIAFFQSKMGIVPSWGGAEYMEGIMGRGRALAAMGRANVMSAEEAKDQGYVDYVYKSEDEAENFINQVASAGLKVTRAQKAMLNAVKIGKTEQKQVLEAVWNGETHRNALQKQLEAVVKK”, “not soluble”.
To “MGSDKIHHHHHHMMSKYPLLGMTLIELQSLVKRLGMPGFAAKQIASWLYDKKVTSIDEMTNLSLKYRELLKQNYEVGAEAPVEEMRSVDGTVKYLYPVGENHFVESVYIPDDERATLCISSQVGCKMNCKFCMTGKQGYSANLTAHQIINQIHSLPERDKLTNVVMMGMGEPLDNLEEVLKALDILTGSYGYAWSPKRITVSTVGLRKGLRRFIEESDCHLAISLHSPVTAQRAELMPAEKAFSITEMVELLKNYDFSKQRRLSFEYIVFKGLNDSQVYAKELLKLLRGLDCRMNLIRFHSIPGVALEGADMDTMTRFRDYLTTHGLFTTIRASRGEDIFAACGMLSTAKQEENNKS” belongs “not soluble”; to “MARGIKLVIFDVDGVLVEVKSSWGYIHRRLGVEEEAMKVKEMFERGSIDYIEWMRLDTELWIRASGGRLHRSRLMEIVGEIPVRKEAFEAVRMLRRMGLRIGLVSSGIDLLVRRVAAEIGADAWASNRLLFDKNGFLQPGGSPLVGVDKRGAVTRMAYELGASLEEVAYVGDSRWDASAMSIVGLPIAYNDGGELDGVARARVDSLLDVPRVVAEWGRARAR”, “not soluble”; to “MATGAMSRSNDWTKSLSDAQPVPYWLDDPGRPRPEAALTGTETCDLLVVGGGYSGLWTALIAKERDPGRDVVLIEGREVGWAASGRNGGFCAASLTHGLSNGLTRWPDDIHRLEELGARNLDAIEAAVARHGLDCDFERTGEIDVATEPHQARELEEWYAEIRAQGLAEGVEYLDAEAVREQVDSPTFRAGLWDRRGVAMVNPAKLAWGLKRACLALGVRVHEHTPALTLKPYGAGMAVRTPYGAVRARTVALGTNVFPNLVRRVRPYTVPVYDYALMTEPLSDGQLASVGWQNRQGLGDSANQFHYFRLSRDNRILWGGYDAVYPYGGRVRAEYDHRPETYAKLAGHFFTCFPQLEGVRFTHAWGGAIDTCSRFSAFFGTAHRGRVAYAAGYTGLGVGATRFGAEVMLDLLSGERTERTELEMVRTKPLPFPPEPFAWTGIALTKWSLARADAHGGRRNLWLRTMDRLGLGFDSLEHHHHHH”, “not soluble”.
As for “MGSDKIHHHHHHMKEVAIYIYMLAVKITGCLARIFPVKQKVVLLVSFPENSTAIIKQMNEMKVTPKTVVFYDPRVDVTGFNFDFIQLKPKKIKHFISLMFHLNTAKVVITDNYFVELAGLKERKNVTCIQIWHANGALKKFGWEDKAAQKRSARDKKRFQEVYRCFSKVLVGSDEMAAIFQRSFLLEDSHMLKLGIPRTDNFFNQQQLKENAERTNTKLHLSNKKKLLYAPTFRDEELHSTTLHLDIAKMKQALGNEYQLILKLHPSISNDLDEVVDDFVVYADKETPIETILPAVDILITDYSSIPFEFALLEKPMIFFTYDLEEYDKARGLSDGFLATIPGPFVHTTEELIQLIEQEAFDLEMVRAFAAKWNKYSDGHSSERFVSFLKEQLEK”, the “soluble on expression in E. coli” value was “not soluble”.
Consider “MNRIKEVLEEKGIKQTWLAEKLGKSFSIVNSYVCNRRQPSLDILFEIAKILEVDVRVLIGTKENRQKSK”, for which the “soluble on expression in E. coli” value is “not soluble”.
As to “SVCLFALQIPHDEAQLLALLQQVVQSHPSFKIEVRRRDKLFACNSSAFKKYLALQLWEKYQLKGKLVDPAITVHVEVTKEHFLIISES”, the “soluble on expression in E. coli” value is “not soluble”.
For “MSGSYDEASEEITDSFWEVGNYKRTVKRIDDGHRLCNDLMSCVQERAKIEKAYAQQLTDWAKRWRQLIEKGPQYGSLERAWGAMMTEADKVSELHQEVKNSLLNEDLEKVKNWQKDAYHKQIMGGFKETKEAEDGFRKAQKPWAKKMKELEAAKKAYHLACKEERLAMTREMNSKTEQSVTPEQQKKLVDKVDKCRQDVQKTQEKYEKVLEDVGKTTPQYMEGMEQVFEQCQQFEEKRLVFLKEVLLDIKRHLNLAENSSYMHVYRELEQAIRGADAQEDLRWFRSTSGPGMPMNWPQFEEWNPDLPHTTAKKEKQPKKAEGATLSNATGAVESTSQAGDRGSVSSYDRGQTYATEWSDDESGNPFGGNEANGGANPFEDDAKGVRVRALYDYDGQEQDELSFKAGDELTKLGEEDEQGWCRGRLDSGQLGLYPANYVEAI”, the “soluble on expression in E. coli” value is listed as “soluble”.
Turning to “MVEDILAPGLRVVFCGINPGLSSAGTGFPFAHPANRFWKVIYQAGFTDRQLKPQEAQHLLDYRCGVTKLVDRPTVQANEVSKQELHAGGRKLIEKIEDYQPQALAILGKQAYEQGFSQRGAQWGKQTLTIGSTQIWVLPNPSGLSRVSLEKLVEAYRELDQALVVRGR”, the “soluble on expression in E. coli” value is “soluble”.
“MEIFQKAKAVRLRSHHDKYLVADEDEESVTQERNGSAGAAKWTVEIIPGSTNLIRLKSAYGKYLTASNKPFLLGATGKKVLQTKPSRLDSSLAWEPIRDSALVKLKTRYGNFLRGNGGLPPWRNSVTHDIPHRSATQEWVLWHIDVVEILPANANSDHHHQHLQLQQPPSPLHHSDSLDFTPGSPSRSDRFFRQESTDSLAVGSPPKSEGRVIYYHVADDDDDVEDDSVEVSSFTFKGNGVEELTMRLKEESNVEDVIVCTRSPLNGKLFPLRLQLPPNNADMTVVLVPKSSKSESLLVLISSQVVALSLMFSVFLDLTVAEKFIK”: the “soluble on expression in E. coli” value is given as “not soluble”.
